Substrate: CC(C)(COP(=O)(O)OP(=O)(O)OC[C@H]1O[C@@H](n2cnc3c(N)ncnc32)[C@H](O)[C@@H]1OP(=O)(O)O)[C@@H](O)C(=O)NCCC(=O)NCCSC(=O)CC(=O)O
Assay: Carboxyltransferase inhibition, assayed in the reverse direction with coupled spectrophotometric detection
Assay type: biochemical, E. coli
Details: other: substrate of carboxyltransferase
Experimental: Carboxyltransferase was purified from a strain of E. coli that overexpresses the genes encoding the α and β subunits of the enzyme.
Carboxyltransferase was assayed in the reverse direction: the production of acetyl-CoA was detected by using the coupling enzymes malate dehydrogenase and citrate synthase, and the reduction of NAD^+ was measured spectrophotometrically by the method of C.
In Equations [1] and [2], v is the initial velocity, Vm is the maximal velocity, A is the substrate concentration, I is the concentration of inhibitor, Km is the Michaelis constant, Kis is the slope inhibition constant, and Kii is the intercept inhibition constant.
v=VmA/(Km(1+I/Kis)+A(1+I/Kii)) [2]
The activity of carboxyltransferase was measured in the reverse direction using malonyl-CoA and biocytin as substrates.

B1: carboxyltransferase component of E. coli acetyl-CoA carboxylase (Escherichia coli K-12) (protein)
chain 1: MSLNFLDFEQPIAELEAKIDSLTAVSRQDEKLDINIDEEVHRLREKSVELTRKIFADLGAWQIAQLARHPQRPYTLDYVRLAFDEFDELAGDRAYADDKAIVGGIARLDGRPVMIIGHQKGRETKEKIRRNFGMPAPEGYRKALRLMQMAERFKMPIITFIDTPGAYPGVGAEERGQSEAIARNLREMSRLGVPVVCTVIGEGGSGGALAIGVGDKVNMLQYSTYSVISPEGCASILWKSADKAPLAAEAMGIIAPRLKELKLIDSIIPEPLGGAHRNPEAMAASLKAQLLADLADLDVLSTEDLKNRRYQRLMSYGYA
chain 2: MSWIERIKSNITPTRKASIPEGVWTKCDSCGQVLYRAELERNLEVCPKCDHHMRMTARNRLHSLLDEGSLVELGSELEPKDVLKFRDSKKYKDRLASAQKETGEKDALVVMKGTLYGMPVVAAAFEFAFMGGSMGSVVGARFVRAVEQALEDNCPLICFSASGGARMQEALMSLMQMAKTSAALAKMQERGLPYISVLTDPTMGGVSASFAMLGDLNIAEPKALIGFAGPRVIEQTVREKLPPGFQRSEFLIEKGAIDMIVRRPEMRLKLASILAKLMNLPAPNPEAPREGVVVPPVPDQEPEA
notes: made in house; host or cells: E. coli overexpression strain (Blanchard et al. 1998; G. Waldrop, LSU)
Km: 100 µM
